Values of other authors in publication PMC8525647.

Target: RAG2 (Homo sapiens) (UniProt P55895)
UniProt P55895, sequence (P55895 whole entry): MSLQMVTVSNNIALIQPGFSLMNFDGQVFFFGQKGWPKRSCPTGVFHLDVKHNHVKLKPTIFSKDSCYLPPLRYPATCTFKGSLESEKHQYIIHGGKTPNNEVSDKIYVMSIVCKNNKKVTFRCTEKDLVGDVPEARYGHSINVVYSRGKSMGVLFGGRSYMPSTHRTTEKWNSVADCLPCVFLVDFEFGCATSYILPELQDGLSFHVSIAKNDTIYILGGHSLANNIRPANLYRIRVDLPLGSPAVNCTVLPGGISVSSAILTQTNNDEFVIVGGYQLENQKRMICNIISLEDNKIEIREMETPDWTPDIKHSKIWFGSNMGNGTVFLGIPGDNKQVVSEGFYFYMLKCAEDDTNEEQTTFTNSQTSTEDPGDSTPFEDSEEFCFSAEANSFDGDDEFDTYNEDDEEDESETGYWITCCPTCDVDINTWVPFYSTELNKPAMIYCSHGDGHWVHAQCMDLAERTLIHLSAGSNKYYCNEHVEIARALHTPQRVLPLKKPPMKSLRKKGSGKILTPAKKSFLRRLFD

Kd: 400 nM
Substance: RAG1 (from UniProt P15918)
